Molecular target: DNMT3A (DNA methyltransferase 3A) (Homo sapiens (Human), UniProt Q9Y6K1 1-912)
Assay: epitope mapping on a membrane of 12-mer DNMT3A peptides, 2 µg GST-ISGF3γ, fluorescence detection
Procedure: Then, 2 μg of GST-ISGF3γ protein were incubated with the membrane.

Sequence of DNMT3A (DNA methyltransferase 3A) (Q9Y6K1 whole entry): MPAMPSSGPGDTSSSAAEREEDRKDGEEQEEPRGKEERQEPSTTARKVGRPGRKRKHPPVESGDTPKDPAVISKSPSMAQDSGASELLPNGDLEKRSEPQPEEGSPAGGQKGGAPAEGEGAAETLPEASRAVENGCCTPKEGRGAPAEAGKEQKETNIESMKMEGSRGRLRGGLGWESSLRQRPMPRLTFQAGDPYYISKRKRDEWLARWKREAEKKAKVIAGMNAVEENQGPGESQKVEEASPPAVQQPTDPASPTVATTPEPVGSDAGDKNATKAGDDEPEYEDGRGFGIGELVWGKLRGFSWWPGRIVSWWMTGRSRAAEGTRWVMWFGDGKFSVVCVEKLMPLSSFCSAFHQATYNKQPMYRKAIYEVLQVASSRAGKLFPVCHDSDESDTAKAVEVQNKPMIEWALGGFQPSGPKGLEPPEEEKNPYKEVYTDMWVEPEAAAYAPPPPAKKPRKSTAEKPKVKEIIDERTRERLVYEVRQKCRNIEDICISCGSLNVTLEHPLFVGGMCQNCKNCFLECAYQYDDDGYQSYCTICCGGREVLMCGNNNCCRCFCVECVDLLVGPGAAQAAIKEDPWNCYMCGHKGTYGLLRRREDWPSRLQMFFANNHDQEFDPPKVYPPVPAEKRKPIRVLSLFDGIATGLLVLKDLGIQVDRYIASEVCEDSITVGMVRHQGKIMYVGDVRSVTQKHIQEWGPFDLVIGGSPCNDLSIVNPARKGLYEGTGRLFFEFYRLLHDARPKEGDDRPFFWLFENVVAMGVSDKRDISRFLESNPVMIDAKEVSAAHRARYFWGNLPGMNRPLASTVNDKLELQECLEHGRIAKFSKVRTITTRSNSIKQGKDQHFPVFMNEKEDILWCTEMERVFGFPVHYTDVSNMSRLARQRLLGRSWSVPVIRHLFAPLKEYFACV

- binding result: binds
B1: GST-ISGF3γ protein (other)
chain: MASGRARCTRKLRNWVVEQVESGQFPGVCWDDTAKTMFRIPWKHAGKQDFREDQDAAFFKAWAIFKGKYKEGDTGGPAVWKTRLRCALNKSSEFKEVPERGRMDVAEPYKVYQLLPPGIVSGQPGTQKVPSKRQHSSVSSERKEEEDAMQNCTLSPSVLQDSLNNEEEGASGGAVHSDIGSSSSSSSPEPQEVTDTTEAPFQGDQRSLEFLLPPEPDYSLLLTFIYNGRVVGEAQVQSLDCRLVAEPSGSESSMEQVLFPKPGPLEPTQRLLSQLERGILVASNPRGLFVQRLCPIPISWNAPQAPPGPGPHLLPSNECVELFRTAYFCRDLVRYFQGLGPPPKFQVTLNFWEESHGSSHTPQNLITVKMEQAFARYLLEQTPEQQAAILSLV
notes: Recombinant fusion used at 2 µg on the DNMT3A peptide membrane; not shown: GST (glutathione S-transferase) tag

— US20180238885A1 (INSERM INSITUT NATIONAL DE LA SANTE ET DE LA RECHERCHE …, published 2018)
